Here are results for 1 protein from US20250215039A1, “NUCLEOSIDES FOR TREATING CANCER” (PRIMEFOUR THERAPEUTICS, INC., priority 2022, published 2025).

What all share (assay): not read
Common to all, as to details: other: substrate of human CDA, 37° C., Michaelis Menten fit, pH 7.5

Substrate in data set [1]: C[C@]1(CO)O[C@@H](n2ccc(N)nc2=O)[C@@H](O)[C@@H]1O
Substrate in data set [2]: C[C@]1(CO)O[C@@H](n2cc(F)c(N)nc2=O)[C@@H](O)[C@@H]1O
Substrate in data set [3]: C[C@]1(CO)O[C@@H](n2cc(F)c(N)nc2=O)C[C@@H]1O
Substrate in data set [4]: Nc1ccn([C@@H]2O[C@H](CO)[C@@H](O)C2(F)F)c(=O)n1

B1: human cytidine deaminase (CDA) (Homo sapiens) (protein)
chain: MAQKRPACTLKPECVQQLLVCSQEAKKSAYCPYSHFPVGAALLTQEGRIFKGCNIENACYPLGICAERTAIQKAVSEGYKDFRAIAIASDMQDDFISPCGACRQVMREFGTNWPVYMTKPDGTYIVMTVQELLPSSFGPEDLQKTQ
The term Km denotes the concentration of substrate that gives half-maximal velocity. As a reminder, the kcat is the maximal rate divided by the concentration of active sites. B1: the Km in the data set “not read [1]” was determined as 196 µM; in “not read [2]”, 1057.8 µM; in the data set “not read [3]”, 1003 µM; in “not read [4]”, 520.8 µM. The kcat was 2.8 s⁻¹ in “not read [1]”, 6.1 s⁻¹ in “not read [2]”, 13.3 s⁻¹ in the data set “not read [3]” and 26.8 s⁻¹ in the data set “not read [4]”. In addition, the kcat/Km in “not read [1]” was 16000 M⁻¹ s⁻¹; in the data set “not read [2]”, 5000 M⁻¹ s⁻¹; in “not read [3]” it was 23000 M⁻¹ s⁻¹; in “not read [4]”, 0.53 (M^−1s^−1) × 10^5.
